Data reported in patent US20250197505A1 (DREN BIO, published 2025).

T1: human CD94 protein (human, UniProt Q13241 34-179, limits assumed)
T1 sequence (looked up): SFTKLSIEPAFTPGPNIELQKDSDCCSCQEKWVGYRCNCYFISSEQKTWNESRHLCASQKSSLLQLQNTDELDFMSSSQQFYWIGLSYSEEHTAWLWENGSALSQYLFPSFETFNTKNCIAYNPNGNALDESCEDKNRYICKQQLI

T2: human CD94 expressed on cells (human primary NK cells in PBMCs; HEK cells expressing human CD94) (human, UniProt Q13241 1-179)
T2 construct: whole, on cells; also called KLRD1; Natural killer cells antigen CD94
T2 sequence (looked up): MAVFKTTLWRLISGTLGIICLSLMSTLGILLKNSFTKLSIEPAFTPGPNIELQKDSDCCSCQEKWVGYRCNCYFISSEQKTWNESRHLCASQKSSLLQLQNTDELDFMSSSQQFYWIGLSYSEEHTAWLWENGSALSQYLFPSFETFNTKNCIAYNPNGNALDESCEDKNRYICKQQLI


Legend:
[1] = biological target: T1, human CD94 protein; test: OCTET BLI, Fab on human CD94 protein
[2] = biological target: T2, human CD94 expressed on cells (human …); test: flow cytometry, HEK cells expressing human CD94, average of 2 runs
Procedure: (§1) Binding of the variant antibodies to HEK cells expressing human CD94 was also tested. Variants and ATX-130 antibodies were generated in human IgG1 form, and binding to HEK cells expressing human CD94 was assessed using flow cytometry. Experiments were run in duplicate, and the average EC50 of the 2 runs was calculated.

[3] = biological target: T2, human CD94 expressed on cells (human …); test: flow cytometry, HEK cells expressing human CD94, 1st run
Procedure: as §1

[4] = biological target: T2, human CD94 expressed on cells (human …); test: flow cytometry, HEK cells expressing human CD94, 2nd run
Procedure: as §1

koff [1] [s⁻¹] | EC50 [2] [pM] | EC50 [3] [pM] | EC50 [4] [pM] | Binder
0.0029 |  |  |  | ATX-130 Fab (Fab, V domains shown, Fab version) VH: EVQLLESGGGLVKPGGSLRLSCAASGFTFSSYSMNWVRQAPGKGLEWVSSISTSSNFIYYADSVKGRFTISRDNAKNSLYLQMNSLRAEDTAVYYCARDLGRYYYYMDVWGKGTTVTVSS VL: DIVMTQSPSSLSASVGDRVTITCRASQSISSWLAWYQQKPGKAPKSLIYAASSLQSGVPSKFSGSGSGTDFTLTISSLQPEDVATYYCQKYNSAPFTFGPGTKVDIK
 | 120 | 110 | 120 | ATX-130 hG1 (antibody, V domains shown, Human IgG1 form; also called ATX-130 human IgG1) VH: EVQLLESGGGLVKPGGSLRLSCAASGFTFSSYSMNWVRQAPGKGLEWVSSISTSSNFIYYADSVKGRFTISRDNAKNSLYLQMNSLRAEDTAVYYCARDLGRYYYYMDVWGKGTTVTVSS VL: DIVMTQSPSSLSASVGDRVTITCRASQSISSWLAWYQQKPGKAPKSLIYAASSLQSGVPSKFSGSGSGTDFTLTISSLQPEDVATYYCQKYNSAPFTFGPGTKVDIK
0.00352 |  |  |  | Ab.31 Fab (Fab, V domains shown, Fab version) VH: EVQLLESGGGLVKPGGSLRLSCAASGFTFSSYSMNWVRQAPGKGLEWVSSISTSSNFIYYADSVKGRFTISRDNAKNSLYLQMNSLRAEDTAVYYCARDLGRYYYYMDVWGKGTTVTVSS VL: DIVMTQSPSSLSASVGDRVTITCRASQSISSWLAWYQQKPGKAPKSLIYAASSLQSGVPSRFSGSGSGTDFTLTISSLQPEDVATYYCQKYNSAPFTFGPGTKVDIK
0.00238 |  |  |  | Ab.22 Fab (Fab, V domains shown, Fab version) VH: EVQLVESGGGLVKPGGSLRLSCAASGFTFSSYSMNWVRQAPGKGLEWVSSISTSSNFIYYADSVKGRFTISRDNAKNSLYLQMNSLRAEDTAVYYCARDLGRYYYYMDVWGKGTTVTVSS VL: DIVMTQSPSSLSASVGDRVTITCRASQSISSWLAWYQQKPGKAPKSLIYAASSLQSGVPSKFSGSGSGTDFTLTISSLQPEDVATYYCQKYNSAPFTFGPGTKVDIK
 | 110 | 110 | 110 | Ab.28 hG1 (antibody, V domains shown, Human IgG1 form; also called Ab.28 human IgG1) VH: EVQLLESGGGLVKPGGSLRLSCAASGFTFSSYSMNWVRQAPGKGLEWVSSISTSSNFIYYADSVKGRFTISRDNAKNSLYLQMNSLRAEDTAVYYCARDLGRYYYYMDVWGKGTTVTVSS VL: DIVMTQSPSSLSASVGDRVTITCRASQSISSWLAWYQQKPEKAPKSLIYAASSLQSGVPSKFSGSGSGTDFTLTISSLQPEDVATYYCQKYNSAPFTFGPGTKVDIK
0.00481 |  |  |  | Ab.33 Fab (Fab, V domains shown, Fab version) VH: EVQLLESGGGLVKPGGSLRLSCAASGFTFSSYSMNWVRQAPGKGLEWVSSISTSSNFIYYADSVKGRFTISRDNAKNSLYLQMNSLRAEDTAVYYCARDLGRYYYYMDVWGKGTTVTVSS VL: DIVMTQSPSSLSASVGDRVTITCRASQSISSWLAWYQQKPGKAPKSLIYAASSLQSGVPSKFSGSGSGTDFTLTISSLQPEDVATYYCQQYNSAPFTFGPGTKVDIK
 | 140 | 140 | 130 | Ab.24 hG1 (antibody, V domains shown, Human IgG1 form; also called Ab.24 human IgG1) VH: EVQLLESGGGLVKPGGSLRLSCAASGFTFSSYSMNWVRQAPGKGLEWVSSISTSSSFIYYADSVKGRFTISRDNAKNSLYLQMNSLRAEDTAVYYCARDLGRYYYYMDVWGKGTTVTVSS VL: DIVMTQSPSSLSASVGDRVTITCRASQSISSWLAWYQQKPGKAPKSLIYAASSLQSGVPSKFSGSGSGTDFTLTISSLQPEDVATYYCQKYNSAPFTFGPGTKVDIK
 | 220 | 260 | 170 | Ab.27 hG1 (antibody, V domains shown, Human IgG1 form; also called Ab.27 human IgG1) VH: EVQLLESGGGLVKPGGSLRLSCAASGFTFSSYSMNWVRQAPGKGLEWVSSISTSSNFIYYADSVKGRFTISRDNAKNSLYLQMNSLRAEDTAVYYCARDLGRYYYYMDVWGKGTTVTVSS VL: DIVMTQSPSSLSASVGDRVTITCRASQSISSWLAWFQQKPGKAPKSLIYAASSLQSGVPSKFSGSGSGTDFTLTISSLQPEDVATYYCQKYNSAPFTFGPGTKVDIK
0.00695 |  |  |  | Ab.24 Fab (Fab, V domains shown, Fab version) VH: EVQLLESGGGLVKPGGSLRLSCAASGFTFSSYSMNWVRQAPGKGLEWVSSISTSSSFIYYADSVKGRFTISRDNAKNSLYLQMNSLRAEDTAVYYCARDLGRYYYYMDVWGKGTTVTVSS VL: DIVMTQSPSSLSASVGDRVTITCRASQSISSWLAWYQQKPGKAPKSLIYAASSLQSGVPSKFSGSGSGTDFTLTISSLQPEDVATYYCQKYNSAPFTFGPGTKVDIK
0.00425 |  |  |  | Ab.28 Fab (Fab, V domains shown, Fab version) VH: EVQLLESGGGLVKPGGSLRLSCAASGFTFSSYSMNWVRQAPGKGLEWVSSISTSSNFIYYADSVKGRFTISRDNAKNSLYLQMNSLRAEDTAVYYCARDLGRYYYYMDVWGKGTTVTVSS VL: DIVMTQSPSSLSASVGDRVTITCRASQSISSWLAWYQQKPEKAPKSLIYAASSLQSGVPSKFSGSGSGTDFTLTISSLQPEDVATYYCQKYNSAPFTFGPGTKVDIK
 | 140 | 140 | 140 | Ab.26 hG1 (antibody, V domains shown, Human IgG1 form; also called Ab.26 human IgG1) VH: EVQLLESGGGLVKPGGSLRLSCAASGFTFSSYSMNWVRQAPGKGLEWVSSISTSSNFIYYADSVKGRFTISRDNAKNSLYLQMNSLRAEDTAVYYCARDLGRYYYYMDVWGKGTTVTVSS VL: DIQMTQSPSSLSASVGDRVTITCRASQSISSWLAWYQQKPGKAPKSLIYAASSLQSGVPSKFSGSGSGTDFTLTISSLQPEDVATYYCQKYNSAPFTFGPGTKVDIK
0.00576 |  |  |  | Ab.34 Fab (Fab, V domains shown, Fab version) VH: EVQLLESGGGLVKPGGSLRLSCAASGFTFSSYSMNWVRQAPGKGLEWVSSISTSSNFIYYADSVKGRFTISRDNAKNSLYLQMNSLRAEDTAVYYCARDLGRYYYYMDVWGKGTTVTVSS VL: DIVMTQSPSSLSASVGDRVTITCRASQSISSWLAWYQQKPGKAPKSLIYAASSLQSGVPSKFSGSGSGTDFTLTISSLQPEDVATYYCQKYNSYPFTFGPGTKVDIK
0.00387 |  |  |  | Ab.25 Fab (Fab, V domains shown, Fab version; VH cell printed as 'SEO ID NO: 32') VH: EVQLLESGGGLVKPGGSLRLSCAASGFTFSSYSMNWVRQAPGKGLEWVSSISTSSNYIYYADSVKGRFTISRDNAKNSLYLQMNSLRAEDTAVYYCARDLGRYYYYMDVWGKGTTVTVSS VL: DIVMTQSPSSLSASVGDRVTITCRASQSISSWLAWYQQKPGKAPKSLIYAASSLQSGVPSKFSGSGSGTDFTLTISSLQPEDVATYYCQKYNSAPFTFGPGTKVDIK
0.00421 |  |  |  | Ab.27 Fab (Fab, V domains shown, Fab version) VH: EVQLLESGGGLVKPGGSLRLSCAASGFTFSSYSMNWVRQAPGKGLEWVSSISTSSNFIYYADSVKGRFTISRDNAKNSLYLQMNSLRAEDTAVYYCARDLGRYYYYMDVWGKGTTVTVSS VL: DIVMTQSPSSLSASVGDRVTITCRASQSISSWLAWFQQKPGKAPKSLIYAASSLQSGVPSKFSGSGSGTDFTLTISSLQPEDVATYYCQKYNSAPFTFGPGTKVDIK
 | 120 | 120 | 120 | Ab.22 hG1 (antibody, V domains shown, Human IgG1 form; also called Ab.22 human IgG1) VH: EVQLVESGGGLVKPGGSLRLSCAASGFTFSSYSMNWVRQAPGKGLEWVSSISTSSNFIYYADSVKGRFTISRDNAKNSLYLQMNSLRAEDTAVYYCARDLGRYYYYMDVWGKGTTVTVSS VL: DIVMTQSPSSLSASVGDRVTITCRASQSISSWLAWYQQKPGKAPKSLIYAASSLQSGVPSKFSGSGSGTDFTLTISSLQPEDVATYYCQKYNSAPFTFGPGTKVDIK
0.00446 |  |  |  | Ab.26 Fab (Fab, V domains shown, Fab version) VH: EVQLLESGGGLVKPGGSLRLSCAASGFTFSSYSMNWVRQAPGKGLEWVSSISTSSNFIYYADSVKGRFTISRDNAKNSLYLQMNSLRAEDTAVYYCARDLGRYYYYMDVWGKGTTVTVSS VL: DIQMTQSPSSLSASVGDRVTITCRASQSISSWLAWYQQKPGKAPKSLIYAASSLQSGVPSKFSGSGSGTDFTLTISSLQPEDVATYYCQKYNSAPFTFGPGTKVDIK
 | 150 | 150 | 140 | Ab.25 hG1 (antibody, V domains shown, Human IgG1 form; VH cell printed as 'SEO ID NO: 32'; also called Ab.25 human IgG1) VH: EVQLLESGGGLVKPGGSLRLSCAASGFTFSSYSMNWVRQAPGKGLEWVSSISTSSNYIYYADSVKGRFTISRDNAKNSLYLQMNSLRAEDTAVYYCARDLGRYYYYMDVWGKGTTVTVSS VL: DIVMTQSPSSLSASVGDRVTITCRASQSISSWLAWYQQKPGKAPKSLIYAASSLQSGVPSKFSGSGSGTDFTLTISSLQPEDVATYYCQKYNSAPFTFGPGTKVDIK
0.0031 |  |  |  | Ab.32 Fab (Fab, V domains shown, Fab version) VH: EVQLLESGGGLVKPGGSLRLSCAASGFTFSSYSMNWVRQAPGKGLEWVSSISTSSNFIYYADSVKGRFTISRDNAKNSLYLQMNSLRAEDTAVYYCARDLGRYYYYMDVWGKGTTVTVSS VL: DIVMTQSPSSLSASVGDRVTITCRASQSISSWLAWYQQKPGKAPKSLIYAASSLQSGVPSKFSGSGSGTDFTLTISSLQPEDFATYYCQKYNSAPFTFGPGTKVDIK
0.00338 |  |  |  | Ab.29 Fab (Fab, V domains shown, Fab version) VH: EVQLLESGGGLVKPGGSLRLSCAASGFTFSSYSMNWVRQAPGKGLEWVSSISTSSNFIYYADSVKGRFTISRDNAKNSLYLQMNSLRAEDTAVYYCARDLGRYYYYMDVWGKGTTVTVSS VL: DIVMTQSPSSLSASVGDRVTITCRASQSISSWLAWYQQKPGKVPKSLIYAASSLQSGVPSKFSGSGSGTDFTLTISSLQPEDVATYYCQKYNSAPFTFGPGTKVDIK
